Results reported in US20230391826A1 (SANFORD BURNHAM PREBYS MEDICAL DISCOVERY INSTITUTE, published 2023).
Like-named read-outs stand apart in the source and are kept apart here. Where no end group is shown, it is not given here.

Columns and labels:
[1] = molecular target: T1, EphA2 endogenously expressed on PC3 prostate cancer cells (UniProt P29317 24-976, limits assumed); test: cell-based or functional assay
[2] = molecular target: T1, EphA2 endogenously expressed on PC3 …; test: cell-based or functional assay; remark: listed apart in the source
[3] = molecular target: T2, EphA2 ligand binding domain (EphA2 LBD), residues 28-200 (UniProt P29317 28-200); test: ITC, soluble EphA2 LBD and peptide
T2 construct: range 28-200; Expressed in E. coli; also called soluble EphA2 LBD; soluble monomeric EphA2 LBD
T2 sequence (P29317 other isoform, or with tags, fused parts or gaps limits assumed, form in doubt): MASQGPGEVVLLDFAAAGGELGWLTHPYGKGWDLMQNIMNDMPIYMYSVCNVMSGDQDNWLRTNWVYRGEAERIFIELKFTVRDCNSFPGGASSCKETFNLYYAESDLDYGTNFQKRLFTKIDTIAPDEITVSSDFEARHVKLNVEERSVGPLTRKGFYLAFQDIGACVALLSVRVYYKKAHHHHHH

[4] = molecular target: T2, EphA2 ligand binding domain (EphA2 …); test: ITC, soluble EphA2 LBD and peptide; remark: listed apart in the source
Description: (§1) For ITC, all peptides are dissolved in DMSO and both the EphA2 LBD and the peptides are diluted to obtain a final buffer containing 9.5 mM HEPES, pH 7.9, 95 mM NaCl, and 5% DMSO. The experiments are carried out at 296 K (23° C.) using an ITC200 calorimeter (Microcal). Two-microliter aliquots of a peptide solution are injected into the cell containing 205 μL EphA2 LBD. 200-400 μM peptides are titrated into 20-40 μM EphA2 LBD. Experimental data are analyzed using the Origin software package (Microcal). The integrated values for the reaction heats are normalized to the amount of injected peptide after blank subtraction.

[5] = molecular target: T2, EphA2 ligand binding domain (EphA2 …); test: ITC, soluble EphA2 LBD and peptide; remark: listed apart in the source
Description: as §1

[6] = molecular target: T3, EphA2 extracellular domain fused to the Fc portion of an antibody (EphA2-Fc); test: ELISA, inhibition of ephrinA5-AP binding to immobilized EphA2-Fc
T3 construct: extracellular domain; Immobilized on the ELISA wells; also called immobilized EphA2
T3 sequence (P29317 whole entry, the tested form may be a part): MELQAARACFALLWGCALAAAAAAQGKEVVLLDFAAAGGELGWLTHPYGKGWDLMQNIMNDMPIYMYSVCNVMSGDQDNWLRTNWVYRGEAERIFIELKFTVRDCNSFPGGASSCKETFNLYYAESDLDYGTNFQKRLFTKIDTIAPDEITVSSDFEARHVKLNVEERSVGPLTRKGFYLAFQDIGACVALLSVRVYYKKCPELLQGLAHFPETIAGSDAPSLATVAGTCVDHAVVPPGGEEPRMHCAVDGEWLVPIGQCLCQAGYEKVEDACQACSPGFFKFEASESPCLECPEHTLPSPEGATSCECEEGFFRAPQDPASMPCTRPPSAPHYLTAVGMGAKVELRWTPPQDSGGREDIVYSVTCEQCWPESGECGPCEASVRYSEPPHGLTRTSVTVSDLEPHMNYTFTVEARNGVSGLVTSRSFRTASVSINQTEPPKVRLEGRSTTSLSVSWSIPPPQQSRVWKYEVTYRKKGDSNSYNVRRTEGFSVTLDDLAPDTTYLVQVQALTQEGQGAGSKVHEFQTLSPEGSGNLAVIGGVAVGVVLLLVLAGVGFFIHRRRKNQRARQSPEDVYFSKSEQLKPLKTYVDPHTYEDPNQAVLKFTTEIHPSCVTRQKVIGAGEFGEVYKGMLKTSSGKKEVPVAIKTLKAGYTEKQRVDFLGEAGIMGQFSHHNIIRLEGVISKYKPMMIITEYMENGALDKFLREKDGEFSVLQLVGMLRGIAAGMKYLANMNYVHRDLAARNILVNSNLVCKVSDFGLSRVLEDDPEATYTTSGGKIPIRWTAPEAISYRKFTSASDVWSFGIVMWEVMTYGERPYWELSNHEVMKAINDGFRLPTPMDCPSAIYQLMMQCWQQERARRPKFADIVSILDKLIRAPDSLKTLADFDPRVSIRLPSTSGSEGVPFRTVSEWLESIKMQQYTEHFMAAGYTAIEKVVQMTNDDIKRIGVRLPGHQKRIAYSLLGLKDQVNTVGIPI

[7] = molecular target: T3, EphA2 extracellular domain fused to the …; test: as above; remark: listed apart in the source
[8] = molecular target: T2, EphA2 ligand binding domain (EphA2 …); test: ITC, EphA2 LBD (200-250 µM) titrated into 10-12.5 µM peptide; single titration shown
[9] = molecular target: T3, EphA2 extracellular domain fused to the …; test: ELISA, inhibition of ephrinA5-AP binding to immobilized EphA2-Fc; representative experiment, triplicates
[10] = molecular target: the molecule itself; test: quantitative FRET between mTURQ- and EYFP-tagged EphA2 L223R/L254R/V255R in HEK293 cells, no ligand; self-association, monomer-dimer fit

T1 sequence (P29317 24-976 limits assumed): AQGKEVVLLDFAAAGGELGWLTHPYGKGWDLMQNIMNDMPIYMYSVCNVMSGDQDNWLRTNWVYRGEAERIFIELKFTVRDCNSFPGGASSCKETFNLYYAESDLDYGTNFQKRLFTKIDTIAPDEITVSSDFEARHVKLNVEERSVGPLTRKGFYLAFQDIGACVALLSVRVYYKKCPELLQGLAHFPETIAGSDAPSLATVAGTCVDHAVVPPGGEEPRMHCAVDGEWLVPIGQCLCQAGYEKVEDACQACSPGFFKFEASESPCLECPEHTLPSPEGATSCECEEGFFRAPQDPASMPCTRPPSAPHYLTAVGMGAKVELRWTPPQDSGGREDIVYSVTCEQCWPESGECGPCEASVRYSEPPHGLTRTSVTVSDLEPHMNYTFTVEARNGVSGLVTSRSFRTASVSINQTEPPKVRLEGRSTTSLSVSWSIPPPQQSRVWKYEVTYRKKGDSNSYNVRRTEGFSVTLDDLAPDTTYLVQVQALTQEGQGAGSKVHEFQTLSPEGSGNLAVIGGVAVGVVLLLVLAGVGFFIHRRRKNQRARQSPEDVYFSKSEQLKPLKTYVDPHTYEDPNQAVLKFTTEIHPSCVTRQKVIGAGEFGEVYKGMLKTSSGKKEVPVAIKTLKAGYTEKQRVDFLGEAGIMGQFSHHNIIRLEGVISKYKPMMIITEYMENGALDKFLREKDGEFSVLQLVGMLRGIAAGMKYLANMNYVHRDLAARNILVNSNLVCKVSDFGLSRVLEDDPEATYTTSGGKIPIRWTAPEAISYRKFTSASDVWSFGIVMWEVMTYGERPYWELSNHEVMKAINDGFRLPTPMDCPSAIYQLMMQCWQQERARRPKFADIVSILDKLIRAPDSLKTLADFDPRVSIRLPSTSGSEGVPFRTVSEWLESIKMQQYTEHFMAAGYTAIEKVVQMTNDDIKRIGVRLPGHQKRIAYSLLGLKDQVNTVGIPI

B1: CGA-WLA-YRPK dimer (N-ter) (peptide)
peptide: CGAWLAYPDSVPYRPK
modifications: also: N-terminally disulfide-linked homodimer, disulfide at 1, other end not in the chain
notes: also called dimer (5); dimeric peptide (5)
[1]
  Blig (bias factor): 0.81
  EC50 PY588: 0.53 nM
  Emax PY588: 0.78 normalized to ephrinA1-Fc
  IC50 PAKT: 0.068 nM
[2]
  EC50 pAKT inhib: 90 pM
  Etop pAKT inhib: 1
  Etop pY588: 0.87 normalized to ephrinA1-Fc
  βlig (bias factor): 0.66
[3]
  Kd: 380 nM
  N (binding stoichiometry): 2.2
[4]
  Kd: 21 nM
  N (binding stoichiometry): 2.2
[5]
  -TΔS: 21.9 kcal/mol
  Kd: 21 nM
  N (binding stoichiometry): 2.2
  ΔG: -10.4 kcal/mol
  ΔH: -32.3 kcal/mol
[6]
  IC50: 0.65 nM
[7]
  IC50: 0.66 nM
[8]
  Kd: 18 nM
[9]
  IC50: 0.79 nM

B2: L223R/L254R/V255R (receptor)
chain: AQGKEVVLLDFAAAGGELGWLTHPYGKGWDLMQNIMNDMPIYMYSVCNVMSGDQDNWLRTNWVYRGEAERIFIELKFTVRDCNSFPGGASSCKETFNLYYAESDLDYGTNFQKRLFTKIDTIAPDEITVSSDFEARHVKLNVEERSVGPLTRKGFYLAFQDIGACVALLSVRVYYKKCPELLQGLAHFPETIAGSDAPSRATVAGTCVDHAVVPPGGEEPRMHCAVDGEWRRPIGQCLCQAGYEKVEDACQACSPGFFKFEASESPCLECPEHTLPSPEGATSCECEEGFFRAPQDPASMPCTRPPSAPHYLTAVGMGAKVELRWTPPQDSGGREDIVYSVTCEQCWPESGECGPCEASVRYSEPPHGLTRTSVTVSDLEPHMNYTFTVEARNGVSGLVTSRSFRTASVSINQTEPPKVRLEGRSTTSLSVSWSIPPPQQSRVWKYEVTYRKKGDSNSYNVRRTEGFSVTLDDLAPDTTYLVQVQALTQEGQGAGSKVHEFQTLSPEGSGNLAVIGGVAVGVVLLLVLAGVGFFIHRRRKNQRARQSPEDVYFSKSEQLKPLKTYVDPHTYEDPNQAVLKFTTEIHPSCVTRQKVIGAGEFGEVYKGMLKTSSGKKEVPVAIKTLKAGYTEKQRVDFLGEAGIMGQFSHHNIIRLEGVISKYKPMMIITEYMENGALDKFLREKDGEFSVLQLVGMLRGIAAGMKYLANMNYVHRDLAARNILVNSNLVCKVSDFGLSRVLEDDPEATYTTSGGKIPIRWTAPEAISYRKFTSASDVWSFGIVMWEVMTYGERPYWELSNHEVMKAINDGFRLPTPMDCPSAIYQLMMQCWQQERARRPKFADIVSILDKLIRAPDSLKTLADFDPRVSIRLPSTSGSEGVPFRTVSEWLESIKMQQYTEHFMAAGYTAIEKVVQMTNDDIKRIGVRLPGHQKRIAYSLLGLKDQVNTVGIPI
modifications: Carries mTURQ (donor) or EYFP (acceptor) at the C-terminus. The tag is not in the letters.
notes: mutant of m18 used in the FRET experiments; also called EphA2 L223R/L254R/V255R; clustering interface mutant; not shown: C-terminal fluorescent protein (mTURQ or EYFP) and any linker to it
[10]
  binding result: binds
